Data published in the supplement of paper PMC10065799, “High-throughput profiling of sequence recognition by tyrosine kinases and SH2 domains using bacterial peptide display” (eLife, 2023).

Biological target: EPHB2 (UniProt P29323)
Assay: phosphorylation enrichment, bacterial display (enrichment ratio); higher = better substrate or ligand; peptides without Tyr show the background
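Further: 11-residue human phosphosite peptides and single-mutation variants displayed on the E. coli surface, counted by deep sequencing, each peptide's frequency after selection divided by its frequency in the unselected input library; frequency after pTyr selection over input frequency; kinase dosed for 20-30% of maximal phosphorylation in three min.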

Chain of EPHB2 (P29323 whole entry, looked up): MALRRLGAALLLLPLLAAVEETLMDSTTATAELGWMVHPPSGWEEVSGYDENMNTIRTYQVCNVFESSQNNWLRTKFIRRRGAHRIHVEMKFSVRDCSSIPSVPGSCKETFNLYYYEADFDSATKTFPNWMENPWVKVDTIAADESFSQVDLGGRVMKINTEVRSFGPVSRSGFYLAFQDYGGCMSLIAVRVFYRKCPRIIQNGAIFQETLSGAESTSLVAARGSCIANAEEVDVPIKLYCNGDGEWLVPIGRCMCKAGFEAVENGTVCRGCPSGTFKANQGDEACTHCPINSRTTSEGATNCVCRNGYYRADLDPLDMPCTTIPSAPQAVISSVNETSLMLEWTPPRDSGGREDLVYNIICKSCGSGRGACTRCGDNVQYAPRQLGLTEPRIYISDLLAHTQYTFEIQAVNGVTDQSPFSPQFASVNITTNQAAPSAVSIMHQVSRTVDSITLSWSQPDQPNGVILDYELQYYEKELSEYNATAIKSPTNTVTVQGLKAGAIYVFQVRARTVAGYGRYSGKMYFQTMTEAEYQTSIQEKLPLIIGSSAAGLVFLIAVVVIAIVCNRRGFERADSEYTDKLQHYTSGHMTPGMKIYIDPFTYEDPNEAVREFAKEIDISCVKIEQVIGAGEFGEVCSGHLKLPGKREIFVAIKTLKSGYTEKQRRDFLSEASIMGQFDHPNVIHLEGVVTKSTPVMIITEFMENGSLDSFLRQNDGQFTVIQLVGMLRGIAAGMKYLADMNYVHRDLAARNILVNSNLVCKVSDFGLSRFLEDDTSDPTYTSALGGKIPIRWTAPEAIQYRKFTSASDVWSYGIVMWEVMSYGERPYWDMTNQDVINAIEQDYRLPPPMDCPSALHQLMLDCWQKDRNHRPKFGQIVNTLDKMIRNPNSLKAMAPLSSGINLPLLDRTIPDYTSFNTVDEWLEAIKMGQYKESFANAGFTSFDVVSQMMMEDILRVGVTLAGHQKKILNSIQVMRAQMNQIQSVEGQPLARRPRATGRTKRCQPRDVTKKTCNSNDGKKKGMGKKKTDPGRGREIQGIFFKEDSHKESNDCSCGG

Compared with PFSNSYENSLI [EPOR_Y489_P488S_YF], GHRPVYSEDEQ [CHST6_Y362_Y358H] is higher in phosphorylation enrichment: 0.498 for the first, 0.523 for the second.

Going from IEENGYNTYAS [FGF10_Y161] to SVTCTNSPALN [TP53_Y126_Y126N], the phosphorylation enrichment falls from 0.593 to 0.483.

First: DGFIDYAEFAK [MCFD2_Y138_YF]
Second: VFFDLYGGEKF [PTPN11_Y66_D61V_YF]
The phosphorylation enrichment of the first is higher: 0.718 for the first, 0.596 for the second.

Compared with DGSALYTGSAL [COL6A3_Y524], AHAGEYGEEAL [HBA1_Y25_A27E] is higher in phosphorylation enrichment: 0.439 for the first, 0.736 for the second.

Going from RLKAKYAAATG [GLI3_Y933] to YGAHKYHPLPV [OAT_Y55_N54K], the phosphorylation enrichment falls from 0.526 to 0.39.

Compared with AISEGYKDFRA [CDA_Y79_V75I], ARKWGYTVKGI [OAT_Y158] is higher in phosphorylation enrichment: 0.415 for the first, 0.448 for the second.

Compared with FCRHNYGVVES [HLA-DRB1_Y112_YF], EKMWSYMKSAE [GRIA3_Y705] is lower in phosphorylation enrichment: 2.62 for the first, 0.4 for the second.

Compared with KNRDVYSSDYF [USP24_Y2134], LIDSSYLTPTA [GREB1L_Y1063_R1066P] is lower in phosphorylation enrichment: 4.03 for the first, 0.498 for the second.

First: FEGAIYRKDIG [GART_Y417_V421I]
Second: RQAQAYRGQRV [TSHR_Y706]
The phosphorylation enrichment of the first is lower: 0.464 for the first, 0.99 for the second.

Going from LIHLHYIRKDF [BBS4_Y43_YF] to QTLTDYDIRFF [CSNK2A1_Y131_YF], the phosphorylation enrichment falls from 1.01 to 0.677.

Going from REVPVYTYSEP [FAM120B_Y368_D370Y] to IQRSLYDRPAS [PDGFRA_Y762], the phosphorylation enrichment falls from 2.33 to 0.479.

Compared with TKDTFYKQPMF [GBA_Y451], PLDGEYVTLQI [TP53_Y327_F328V] is higher in phosphorylation enrichment: 0.37 for the first, 0.789 for the second.

Going from LIGTPYWMAPE [PAK5_Y608_V604I] to RSHLPYDVTPE [IQGAP3_Y1098], the phosphorylation enrichment falls from 1 to 0.742.

First: EAVLHYKHQNQ [MTOR_Y1804]
Second: VPLATYMQIYK [RPL21_Y30_R32Q]
The phosphorylation enrichment of the first is lower: 0.403 for the first, 0.737 for the second.

First: ARSHIYTFASC [MEFV_Y741]
Second: GLGVTYEQALA [MAP2_Y996]
The phosphorylation enrichment of the first is higher: 0.533 for the first, 0.471 for the second.

First: DFRTTYVNANE [KCNH2_Y475_N470D]
Second: FIPFRYPKEFQ [IDS_Y234_H229Y_YF]
The phosphorylation enrichment of the first is higher: 0.512 for the first, 0.494 for the second.

Sequence VVHSSYDEIEG [SEC24A_Y263] has a phosphorylation enrichment of 0.549.

Biological target: EPHB1 (UniProt P54762)
Sequence (P54762 whole entry, looked up): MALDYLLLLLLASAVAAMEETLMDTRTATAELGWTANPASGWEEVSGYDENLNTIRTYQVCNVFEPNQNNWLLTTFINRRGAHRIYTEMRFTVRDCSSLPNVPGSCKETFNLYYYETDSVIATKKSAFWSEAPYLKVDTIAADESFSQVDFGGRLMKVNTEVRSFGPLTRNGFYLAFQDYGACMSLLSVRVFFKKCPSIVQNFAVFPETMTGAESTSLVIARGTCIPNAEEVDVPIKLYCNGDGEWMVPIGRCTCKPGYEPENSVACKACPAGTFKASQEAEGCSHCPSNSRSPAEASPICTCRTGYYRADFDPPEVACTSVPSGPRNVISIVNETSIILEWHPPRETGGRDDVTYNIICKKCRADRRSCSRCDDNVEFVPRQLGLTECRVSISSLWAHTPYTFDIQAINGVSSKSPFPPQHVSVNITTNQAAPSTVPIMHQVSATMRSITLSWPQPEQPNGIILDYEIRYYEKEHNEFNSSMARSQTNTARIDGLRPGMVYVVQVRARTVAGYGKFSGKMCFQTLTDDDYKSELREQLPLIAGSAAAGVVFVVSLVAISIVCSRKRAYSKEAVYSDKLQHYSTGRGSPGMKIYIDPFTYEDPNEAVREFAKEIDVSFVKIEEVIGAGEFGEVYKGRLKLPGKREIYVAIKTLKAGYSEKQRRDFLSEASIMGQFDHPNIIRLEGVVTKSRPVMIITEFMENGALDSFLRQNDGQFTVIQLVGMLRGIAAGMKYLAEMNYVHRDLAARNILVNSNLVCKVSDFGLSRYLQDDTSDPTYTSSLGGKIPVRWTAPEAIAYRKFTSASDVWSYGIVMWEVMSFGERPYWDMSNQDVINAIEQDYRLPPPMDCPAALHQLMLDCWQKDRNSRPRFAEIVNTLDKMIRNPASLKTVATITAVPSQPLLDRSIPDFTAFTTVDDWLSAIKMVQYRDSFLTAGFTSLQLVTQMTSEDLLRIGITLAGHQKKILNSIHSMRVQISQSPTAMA
Assay: as above

First: PFSNSYENSLI [EPOR_Y489_P488S_YF]
Second: GHRPVYSEDEQ [CHST6_Y362_Y358H]
The phosphorylation enrichment of the first is higher: 1.15 for the first, 0.429 for the second.

First: IEENGYNTYAS [FGF10_Y161]
Second: SVTCTNSPALN [TP53_Y126_Y126N]
The phosphorylation enrichment of the first is lower: 0.534 for the first, 0.586 for the second.

Compared with DGFIDYAEFAK [MCFD2_Y138_YF], VFFDLYGGEKF [PTPN11_Y66_D61V_YF] is higher in phosphorylation enrichment: 0.793 for the first, 0.803 for the second.

Compared with DGSALYTGSAL [COL6A3_Y524], AHAGEYGEEAL [HBA1_Y25_A27E] is higher in phosphorylation enrichment: 0.418 for the first, 0.664 for the second.

Compared with RLKAKYAAATG [GLI3_Y933], YGAHKYHPLPV [OAT_Y55_N54K] is lower in phosphorylation enrichment: 0.421 for the first, 0.371 for the second.

First: AISEGYKDFRA [CDA_Y79_V75I]
Second: ARKWGYTVKGI [OAT_Y158]
The phosphorylation enrichment of the first is lower: 0.353 for the first, 0.503 for the second.

First: FCRHNYGVVES [HLA-DRB1_Y112_YF]
Second: EKMWSYMKSAE [GRIA3_Y705]
The phosphorylation enrichment of the first is higher: 1.32 for the first, 0.511 for the second.

Compared with KNRDVYSSDYF [USP24_Y2134], LIDSSYLTPTA [GREB1L_Y1063_R1066P] is lower in phosphorylation enrichment: 3.39 for the first, 0.569 for the second.

Going from FEGAIYRKDIG [GART_Y417_V421I] to RQAQAYRGQRV [TSHR_Y706], the phosphorylation enrichment rises from 0.442 to 0.564.

Going from LIHLHYIRKDF [BBS4_Y43_YF] to QTLTDYDIRFF [CSNK2A1_Y131_YF], the phosphorylation enrichment falls from 1.17 to 0.626.

Going from REVPVYTYSEP [FAM120B_Y368_D370Y] to IQRSLYDRPAS [PDGFRA_Y762], the phosphorylation enrichment falls from 3.19 to 0.488.

First: TKDTFYKQPMF [GBA_Y451]
Second: PLDGEYVTLQI [TP53_Y327_F328V]
The phosphorylation enrichment of the first is lower: 0.257 for the first, 0.802 for the second.

First: LIGTPYWMAPE [PAK5_Y608_V604I]
Second: RSHLPYDVTPE [IQGAP3_Y1098]
The phosphorylation enrichment of the first is higher: 1.4 for the first, 0.572 for the second.

Compared with EAVLHYKHQNQ [MTOR_Y1804], VPLATYMQIYK [RPL21_Y30_R32Q] is higher in phosphorylation enrichment: 0.405 for the first, 1.98 for the second.

Compared with ARSHIYTFASC [MEFV_Y741], GLGVTYEQALA [MAP2_Y996] is lower in phosphorylation enrichment: 0.488 for the first, 0.48 for the second.

Going from DFRTTYVNANE [KCNH2_Y475_N470D] to FIPFRYPKEFQ [IDS_Y234_H229Y_YF], the phosphorylation enrichment falls from 0.366 to 0.316.

VVHSSYDEIEG [SEC24A_Y263] showed a phosphorylation enrichment of 0.51.

Biological target: FGFR3 (UniProt P22607)
Sequence (P22607 whole entry, looked up): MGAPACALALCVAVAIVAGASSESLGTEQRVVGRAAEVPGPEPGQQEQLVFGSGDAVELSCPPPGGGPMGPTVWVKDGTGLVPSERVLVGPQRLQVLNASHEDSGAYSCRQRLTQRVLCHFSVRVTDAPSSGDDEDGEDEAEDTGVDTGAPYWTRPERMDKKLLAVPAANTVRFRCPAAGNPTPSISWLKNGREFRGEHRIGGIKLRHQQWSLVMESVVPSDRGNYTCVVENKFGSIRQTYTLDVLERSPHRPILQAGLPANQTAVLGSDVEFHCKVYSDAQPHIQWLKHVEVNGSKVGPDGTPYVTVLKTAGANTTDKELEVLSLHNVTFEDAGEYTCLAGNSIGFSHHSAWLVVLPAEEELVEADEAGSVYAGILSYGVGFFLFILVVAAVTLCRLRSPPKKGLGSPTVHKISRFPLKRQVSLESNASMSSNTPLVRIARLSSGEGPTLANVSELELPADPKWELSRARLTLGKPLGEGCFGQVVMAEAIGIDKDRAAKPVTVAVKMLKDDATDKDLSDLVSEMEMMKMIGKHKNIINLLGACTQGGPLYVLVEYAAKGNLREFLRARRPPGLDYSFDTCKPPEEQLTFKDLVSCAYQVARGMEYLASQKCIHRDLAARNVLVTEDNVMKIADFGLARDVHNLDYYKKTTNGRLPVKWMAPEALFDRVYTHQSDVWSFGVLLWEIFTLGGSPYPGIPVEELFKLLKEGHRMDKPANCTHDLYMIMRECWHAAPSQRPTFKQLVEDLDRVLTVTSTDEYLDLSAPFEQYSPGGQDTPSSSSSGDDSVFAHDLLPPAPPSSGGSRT
Assay: as above

Going from PFSNSYENSLI [EPOR_Y489_P488S_YF] to GHRPVYSEDEQ [CHST6_Y362_Y358H], the phosphorylation enrichment falls from 1.51 to 0.707.

Going from IEENGYNTYAS [FGF10_Y161] to SVTCTNSPALN [TP53_Y126_Y126N], the phosphorylation enrichment rises from 0.674 to 0.699.

Going from DGFIDYAEFAK [MCFD2_Y138_YF] to VFFDLYGGEKF [PTPN11_Y66_D61V_YF], the phosphorylation enrichment falls from 0.647 to 0.598.

Going from DGSALYTGSAL [COL6A3_Y524] to AHAGEYGEEAL [HBA1_Y25_A27E], the phosphorylation enrichment rises from 0.474 to 0.793.

Compared with RLKAKYAAATG [GLI3_Y933], YGAHKYHPLPV [OAT_Y55_N54K] is higher in phosphorylation enrichment: 0.395 for the first, 0.403 for the second.

Going from AISEGYKDFRA [CDA_Y79_V75I] to ARKWGYTVKGI [OAT_Y158], the phosphorylation enrichment falls from 0.524 to 0.517.

Compared with FCRHNYGVVES [HLA-DRB1_Y112_YF], EKMWSYMKSAE [GRIA3_Y705] is higher in phosphorylation enrichment: 0.661 for the first, 0.75 for the second.

Compared with KNRDVYSSDYF [USP24_Y2134], LIDSSYLTPTA [GREB1L_Y1063_R1066P] is lower in phosphorylation enrichment: 1.15 for the first, 0.825 for the second.

First: FEGAIYRKDIG [GART_Y417_V421I]
Second: RQAQAYRGQRV [TSHR_Y706]
The phosphorylation enrichment of the first is lower: 0.743 for the first, 1 for the second.

First: LIHLHYIRKDF [BBS4_Y43_YF]
Second: QTLTDYDIRFF [CSNK2A1_Y131_YF]
The phosphorylation enrichment of the first is higher: 1.22 for the first, 0.888 for the second.

Compared with REVPVYTYSEP [FAM120B_Y368_D370Y], IQRSLYDRPAS [PDGFRA_Y762] is lower in phosphorylation enrichment: 1.81 for the first, 0.469 for the second.

First: TKDTFYKQPMF [GBA_Y451]
Second: PLDGEYVTLQI [TP53_Y327_F328V]
The phosphorylation enrichment of the first is lower: 0.42 for the first, 1.57 for the second.

Compared with LIGTPYWMAPE [PAK5_Y608_V604I], RSHLPYDVTPE [IQGAP3_Y1098] is lower in phosphorylation enrichment: 3.65 for the first, 0.747 for the second.

First: EAVLHYKHQNQ [MTOR_Y1804]
Second: VPLATYMQIYK [RPL21_Y30_R32Q]
The phosphorylation enrichment of the first is lower: 0.453 for the first, 0.53 for the second.

Compared with ARSHIYTFASC [MEFV_Y741], GLGVTYEQALA [MAP2_Y996] is lower in phosphorylation enrichment: 0.653 for the first, 0.477 for the second.

Going from DFRTTYVNANE [KCNH2_Y475_N470D] to FIPFRYPKEFQ [IDS_Y234_H229Y_YF], the phosphorylation enrichment falls from 0.596 to 0.516.

With VVHSSYDEIEG [SEC24A_Y263] the phosphorylation enrichment was 0.648.

Biological target: Fyn (UniProt P06241)
Sequence (P06241 whole entry, looked up): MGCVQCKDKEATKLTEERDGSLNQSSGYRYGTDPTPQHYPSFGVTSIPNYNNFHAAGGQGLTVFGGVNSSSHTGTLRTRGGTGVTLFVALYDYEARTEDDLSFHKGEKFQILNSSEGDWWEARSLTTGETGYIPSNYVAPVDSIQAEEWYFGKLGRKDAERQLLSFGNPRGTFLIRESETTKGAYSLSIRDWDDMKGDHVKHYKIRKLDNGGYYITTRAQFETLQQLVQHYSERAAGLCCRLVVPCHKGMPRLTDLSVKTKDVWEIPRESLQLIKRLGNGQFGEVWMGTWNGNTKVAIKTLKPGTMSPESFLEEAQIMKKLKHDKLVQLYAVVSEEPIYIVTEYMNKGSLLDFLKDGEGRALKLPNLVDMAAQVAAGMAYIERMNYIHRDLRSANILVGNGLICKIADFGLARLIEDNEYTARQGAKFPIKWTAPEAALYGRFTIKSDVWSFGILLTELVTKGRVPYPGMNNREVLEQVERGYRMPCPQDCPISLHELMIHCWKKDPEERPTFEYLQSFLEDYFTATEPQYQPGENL
Assay: as above

Compared with PFSNSYENSLI [EPOR_Y489_P488S_YF], GHRPVYSEDEQ [CHST6_Y362_Y358H] is lower in phosphorylation enrichment: 0.727 for the first, 0.474 for the second.

Compared with IEENGYNTYAS [FGF10_Y161], SVTCTNSPALN [TP53_Y126_Y126N] is lower in phosphorylation enrichment: 0.606 for the first, 0.495 for the second.

First: DGFIDYAEFAK [MCFD2_Y138_YF]
Second: VFFDLYGGEKF [PTPN11_Y66_D61V_YF]
The phosphorylation enrichment of the first is lower: 0.674 for the first, 1.42 for the second.

First: DGSALYTGSAL [COL6A3_Y524]
Second: AHAGEYGEEAL [HBA1_Y25_A27E]
The phosphorylation enrichment of the first is higher: 0.84 for the first, 0.576 for the second.

Going from RLKAKYAAATG [GLI3_Y933] to YGAHKYHPLPV [OAT_Y55_N54K], the phosphorylation enrichment rises from 0.379 to 0.611.

Compared with AISEGYKDFRA [CDA_Y79_V75I], ARKWGYTVKGI [OAT_Y158] is higher in phosphorylation enrichment: 0.323 for the first, 0.423 for the second.

Going from FCRHNYGVVES [HLA-DRB1_Y112_YF] to EKMWSYMKSAE [GRIA3_Y705], the phosphorylation enrichment rises from 0.503 to 0.802.

Compared with KNRDVYSSDYF [USP24_Y2134], LIDSSYLTPTA [GREB1L_Y1063_R1066P] is lower in phosphorylation enrichment: 1.19 for the first, 0.409 for the second.

Compared with FEGAIYRKDIG [GART_Y417_V421I], RQAQAYRGQRV [TSHR_Y706] is higher in phosphorylation enrichment: 0.524 for the first, 1 for the second.

First: LIHLHYIRKDF [BBS4_Y43_YF]
Second: QTLTDYDIRFF [CSNK2A1_Y131_YF]
The phosphorylation enrichment of the first is higher: 0.871 for the first, 0.709 for the second.

Compared with REVPVYTYSEP [FAM120B_Y368_D370Y], IQRSLYDRPAS [PDGFRA_Y762] is lower in phosphorylation enrichment: 9.05 for the first, 0.613 for the second.

First: TKDTFYKQPMF [GBA_Y451]
Second: PLDGEYVTLQI [TP53_Y327_F328V]
The phosphorylation enrichment of the first is lower: 0.419 for the first, 0.984 for the second.

First: LIGTPYWMAPE [PAK5_Y608_V604I]
Second: RSHLPYDVTPE [IQGAP3_Y1098]
The phosphorylation enrichment of the first is lower: 0.825 for the first, 0.848 for the second.

Compared with EAVLHYKHQNQ [MTOR_Y1804], VPLATYMQIYK [RPL21_Y30_R32Q] is higher in phosphorylation enrichment: 0.428 for the first, 0.975 for the second.

First: ARSHIYTFASC [MEFV_Y741]
Second: GLGVTYEQALA [MAP2_Y996]
The phosphorylation enrichment of the first is higher: 1.41 for the first, 0.464 for the second.

Going from DFRTTYVNANE [KCNH2_Y475_N470D] to FIPFRYPKEFQ [IDS_Y234_H229Y_YF], the phosphorylation enrichment falls from 0.491 to 0.469.

VVHSSYDEIEG [SEC24A_Y263] was tested, and the phosphorylation enrichment was 0.498.
